# B1: Rap guanine nucleotide exchange factor 4 (Mus musculus), Q9EQZ6-3 (parent)
# chain: MVAAHAAHSQSSAEWIACLDKRPLERSSEDVDIIFTRLKGVKAFEKFHPNLLRQICLCGYYENLEKGITLFRQGDIGTNWYAVLAGSLDVKVSETSSHQDAVTICTLGIGTAFGESILDNTPRHATIVTRESSELLRIEQEDFKALWEKYRQYMAGLLAPPYGVMETGSNNDRIPDKENVPSEKILRAGKILRIAILSRAPHMIRDRKYHLKTYRQCCVGTELVDWMIQQTSCVHSRTQAVGMWQVLLEDGVLNHVDQERHFQDKYLFYRFLDDEREDAPLPTEEEKKECDEELQDTMLLLSQMGPDAHMRMILRKPPGQRTVDDLEIIYDELLHIKALSHLSTTVKRELAGVLIFESHAKGGTVLFNQGEEGTSWYIILKGSVNVVIYGKGVVCTLHEGDDFGKLALVNDAPRAASIVLREDNCHFLRVDKEDFNRILRDVEANTVRLKEHDQDVLVLEKVPAGNRAANQGNSQPQQKYTVMSGTPEKILEHFLETIRLEPSLNEATDSVLNDFVMMHCVFMPNTQLCPALVAHYHAQPSQGTEQERMDYALNNKRRVIRLVLQWAAMYGDLLQEDDVAMAFLEEFYVSVSDDARMMAAFKEQLPELEKIVKQISEDAKAPQKKHKVLLQQFNTGDERAQKRQPIRGSDEVLFKVYCIDHTYTTIRVPVAASVKEVISAVADKLGSGEGLIIVKMNSGGEKVVLKSNDVSVFTTLTINGRLFACPREQFDSLTPLPEQEGPTTGTVGTFELMSSKDLAYQMTTYDWELFNCVHELELIYHTFGRHNFKKTTANLDLFLRRFNEIQFWVVTEVCLCSQLSKRVQLLKKFIKIAAHCKEYKNLNSFFAIVMGLSNVAVSRLALTWEKLPSKFKKFYAEFESLMDPSRNHRAYRLTAAKLEPPLIPFMPLLIKDMTFTHEGNKTFIDNLVNFEKMRMIANTARTVRYYRSQPFNPDAAQANKNHQDVRSYVRQLNVIDNQRTLSQMSHRLEPRRP
# Variants of: B1
# Conditions: with rap1b_human RAP1B
row,Variant,effect of a mutation on the interaction
1,R886A,decreasing interaction strength
2,H452A,decreasing interaction strength

# Reference: IntAct's records for PubMed 16452984
